According to article PMC7153000, “Radiosynthesis, Biological Evaluation, and Preclinical Study of a ^68Ga-Labeled Cyclic RGD Peptide as an Early Diagnostic Agent for Overexpressed αvβ3 Integrin Receptors in Non-Small-Cell Lung Cancer” (Contrast Media & Molecular Imaging, 2020):

Assays:
[1] = physchem; type: physicochemical; conditions: pH 7.4
Description: In a 5 ml Eppendorf tube, 100 μl of the radiolabelled peptide, 0.99 ml of PBS, pH 7.4, and 1 ml n-octanol were mixed. After intense vortexing for 8 min, the two layers were separated by centrifugation. Then, 500 μl aliquots of aqueous and organic layers were transferred to a new tube, radioactivity was measured in a well-type gamma counter (Delshid Gamma counter, Tehran, Iran), and partition coefficient (log P) values were calculated (n = 3).

[2] = in vitro; type: in vitro ADME; conditions: human, plasma
Description: The protein binding properties of [^68Ga]Ga-DOTA-E(cRGDfK)2 in blood were investigated by protein precipitation. 1ml of the labeled complex and 3ml of human plasma were mixed and incubated for 1 hour at 37°C. Then, an equal volume of 10% trichloroacetic acid (TCA) was added, and samples were centrifuged at 3,000 rpm for 10 min […]. Precipitate was resuspended in 5% TCA and centrifuged at 3,000 rpm for 10 min. Precipitate and the supernatant fractions were analyzed for radioactivity in a gamma counter. Protein binding of [^68Ga]Ga-DOTA-E(cRGDfK)2 was expressed as the fraction of radioactivity bound to the protein, in percentage of the total radioactivity.

[3] = test system: A549 tumor; set-up: species or system BALB/c mice; conditions: mouse, in vivo
Description: 100 μg of [^68Ga]Ga-DOTA-E(cRGDfK)2 formulated in 100 μL saline was injected via the tail vein of 3 groups of 3 BALB/c mice. At 30, 60, and 90 min postinjection, mice were euthanized using a lethal dose of ketamine/xylazine, and blood was collected from the heart using a preheparinised syringe. Tumor and normal organs were excised, washed, weighed, and the radioactivity of each organ was determined using a well-type gamma counter. The organ uptake was measured as percent of the injected dose per gram of organ tissue (%ID/g). A blocking experiment was performed in the presence of a 500-fold excess of unlabeled DOTA-E(cRGDfK)2 30 min before [^68Ga]Ga-DOTA-E(cRGDfK)2 injection.
6–8 weeks female BALB/c mice (with body weights of 20–25 g) were purchased from Royan Insitute (Amol, Iran). Animals were housed in wire cages under controlled conditions of temperature at 25°C, relative humidity around 50%, and 12/12 h light/dark cycles with food, and water was given ad libitum. 2 × 10^6 cell suspensions of human lung adenocarcinoma A549 in 100 μl PBS were injected subcutaneously in the right dorsal flank of each mouse. Palpable tumor diameter was measured using digital calipers twice weekly. When tumor size reached a mean tumor volume of 50–100 mm^3, animals received a tail vein injection of 740 kBq of [^68Ga]Ga-DOTA-E(cRGDfK)2 in 100 μl normal saline. […]

[4] = biological target: integrin αvβ3; conditions: cRGDfK as reference; cited from earlier work
From the text: Based on previous studies, multimeric cyclic RGD has higher (20–100 more) αvβ3 binding affinity than its monomeric alternatives. […] Many other works reported higher dissociation constant or lower affinity.

| Molecule | logD [1] | In vitro protein binding ([2]; 1 h) [%] | fraction unbound at 1 h ([2]; In vitro protein binding) | Clearance [3] | Uptake of radioactivity in the kidney and intestine [3] | Kd [4] [nM] |
| --- | --- | --- | --- | --- | --- | --- |
| N=C(N)NCCC[C@@H]1NC(=O)[C@H](CCCCNC(=O)CC[C@H](NC(=O)CN2CCN(CC(=O)O)CCN(CC(=O)O)CCN(CC(=O)O)CC2)C(=O)NCCCC[C@@H]2NC(=O)[C@@H](Cc3ccccc3)NC(=O)[C@H](CC(=O)O)NC(=O)CNC(=O)[C@H](CCCNC(=N)N)NC2=O)NC(=O)[C@@H](Cc2ccccc2)NC(=O)[C@H](CC(=O)O)NC(=O)CNC1=O [[^68Ga]Ga-DOTA-E(cRGDfK)2, metal not drawn] | -3.97 ± 0.13 | 2.88 | > 0.95 | fast and via the renal system | moderate uptake |  |
| cRGDfK |  |  |  |  |  | 1300 |
